The record followed here is US20040141964A1 (GlaxoSmithKline, published 2004).

Experiment [1] concerns the target T1, human IL-18 (human, UniProt Q14116 37-193).
T1 construct: Injected in solution over captured mAb in the BIAcore assays; also called human interleukin-18; recombinant IL-18
T1 sequence (looked up): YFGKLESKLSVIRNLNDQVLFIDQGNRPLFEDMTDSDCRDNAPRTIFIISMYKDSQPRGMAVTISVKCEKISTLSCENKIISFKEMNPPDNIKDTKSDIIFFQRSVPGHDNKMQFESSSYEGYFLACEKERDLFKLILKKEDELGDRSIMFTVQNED
The experiment in a line: BIAcore optical biosensor, 25 C; mAb captured on anti-rat IgG Fc surface, IL-18 injected. The protocol:
(§1) Kinetic data was evaluated using relationships described previously (Karlsson et al, J. Immunol. Meth., 145:229-240 (1991) and which is incorporated by reference in its entirely. The mAb (diluted in HBS buffer, 10 mM HEPES, 150 mM NaCl, 0.01% Tween-20. pH 7.4) was injected over a rabbit anti-mouse IgG Fc or goat anti-rat IgG Fc surface, followed by buffer flow and the RU was recorded. IL-18 (diluted in HBS buffer) was then injected for 180 seconds followed by a buffer flow for 500 seconds and the RU was recorded. The sensor chip surface was regenerated by an injection of 0.1 M phosphoric acid.
On the technique in general: Surface plasmon resonance follows binding to a sensor surface in real time, without labels.

In experiment [2] the target is T1, human IL-18. The experiment in a line: cell-based or functional assay.
Experiment [3] concerns the target T1, human IL-18. As to the kind of experiment: BIAcore optical biosensor, 25 C; mAb captured on anti-mouse IgG Fc surface, IL-18 injected. The protocol:
as §1

B1: rat monoclonal antibody 2C10 (antibody, IgG1, V domains shown)
VH: EVQLQQSGAELVRPGTSVKLSCKVSGEISTGYYFHFVRRRPGQGLEWIGRIDPEDDSTKYAERFKDRATLTAQTSSNTAYLNLSSLTSEDTATYFCTTWRIYRDSSGRPFYVMDAWGQGASVTVSS
VL: DIQMTQSPASLSASLGETVSIECLASEDIYTYLTWYQQKPGKSPQLLIYGANKLQDGVPSRFSGSGSGTQYSLKISGIQPEDEGDYFCLQGSKFPLTFGSGTKLEIKR
notes: Mab purified from a rat hybridoma, isotype IgG1 kappa; also called mAb 2C10; 2C10 (rat)
As usually defined, the Kd is a measure of binding affinity in units of concentration. Molecule B1 displayed a Kd in experiment [1] of 0.039 nM. Moreover, in experiment [2], the “Neutralisation IC50” value amounted to 0.1 nM.

B2: rat monoclonal antibody 14B7 (antibody, IgG1, V domains shown)
VH: EVQLQQSGAELVRPGTSVKFSCKVSGDTPTTYYVHFVRQRPGQGLEWIGRIDPEDTSTKYAEKFRNKATFTADPSSNTAYLNLSSLTPEDTATYFCTIMRYHSTYRVYVMDFWGQGTAVTVS
VL: DIQMTQSPASLSASLGETVSIECLASEDIYSYLAWYQQKPGKSPQLLIYATKRLQDGVPSRFSGSGSGTQYSLKISDMQPEDEGDYFCLQNSKFPVTFGSGTKLEIKR
notes: Mab purified from a rat hybridoma, isotype IgG1 kappa; also called mAb 14B7; 14B7 (rat)
In experiment [1], B2 returned a Kd of 0.15 nM. For the same molecule, the “Neutralisation IC50” value in experiment [2] amounted to 0.2 nM.

B3: murine monoclonal antibody 13G9 (antibody, IgG1, V domains shown)
VH: QVTLKESGPGILKPSQTLSLTCSFSGFSLSTSGMGIAWVRQPSGKGLEWLADIWWDDNKYYNPSLESQLTISKDTSRNQVFLTITSVDTADSATYYCARHHYDGSSLLPMDYWGQGTSVTVSS
VL: DVVMTQTPLSLPVSLGDQASISCRSSQSLVHSNGNTYLHWYLQKPGQSPKLLIYKVSNRFSGVPDRFSGSGSGTDFTLKISRVEAEDLGVYFCSQSTHVPPYTFGGGTKLEIKR
notes: Mab purified from a mouse hybridoma, isotype IgG1 kappa; also called mAb 13G9; 13G9 (mouse)
As for B3, the Kd in experiment [3] is 12 nM. Besides, in experiment [2], the “Neutralisation IC50” value was 3 nM.
